# Experimental data: patent US10562936B2, “Ligands for integrin αvβ6, synthesis and uses thereof” (Technische Universitat Munchen, priority 2015, dated 2020)
# Where two headings read alike, the source gives them in different places. Square brackets hold non-standard residues; d marks the D form. Peptide text beside a SMILES is read from it. NMeK = CN[C@@H](CCCCN)C(=O)O; dNMeK = CN[C@H](CCCCN)C(=O)O; Sar = CNCC(=O)O
# B1: Compound 4, cyclic peptide A R G D L A L p P (peptide)
# peptide: cyclo(ARGDLAL[dP]P)
# SMILES: CC(C)C[C@@H]1NC(=O)[C@H](CC(=O)O)NC(=O)CNC(=O)[C@H](CCCNC(=N)N)NC(=O)[C@H](C)NC(=O)[C@@H]2CCCN2C(=O)[C@H]2CCCN2C(=O)[C@H](CC(C)C)NC(=O)[C@H](C)NC1=O
# notes: also called Cpd
# B2: Compound 9, cyclic peptide A R G D F A L p P (peptide)
# peptide: cyclo(ARGDFAL[dP]P)
# SMILES: CC(C)C[C@@H]1NC(=O)[C@H](C)NC(=O)[C@H](Cc2ccccc2)NC(=O)[C@H](CC(=O)O)NC(=O)CNC(=O)[C@H](CCCNC(=N)N)NC(=O)[C@H](C)NC(=O)[C@@H]2CCCN2C(=O)[C@H]2CCCN2C1=O
# notes: Comparative compound (*)
# B3: Compound 12, cyclic peptide F R G D L A L p P (peptide)
# peptide: cyclo(FRGDLAL[dP]P)
# SMILES: CC(C)C[C@@H]1NC(=O)[C@H](CC(=O)O)NC(=O)CNC(=O)[C@H](CCCNC(=N)N)NC(=O)[C@H](Cc2ccccc2)NC(=O)[C@@H]2CCCN2C(=O)[C@H]2CCCN2C(=O)[C@H](CC(C)C)NC(=O)[C@H](C)NC1=O
# notes: also called Cpd; 12
# B4: Compound 7, cyclic peptide A R G D L d L p P (peptide)
# peptide: cyclo(ARGDL[dD]L[dP]P)
# SMILES: CC(C)C[C@@H]1NC(=O)[C@H](CC(=O)O)NC(=O)CNC(=O)[C@H](CCCNC(=N)N)NC(=O)[C@H](C)NC(=O)[C@@H]2CCCN2C(=O)[C@H]2CCCN2C(=O)[C@H](CC(C)C)NC(=O)[C@@H](CC(=O)O)NC1=O
# notes: Comparative compound (*)
# B5: Compound 14, cyclic peptide A R G D L A L Sar P (peptide)
# peptide: cyclo(ARGDLAL[Sar]P)
# SMILES: CC(C)C[C@@H]1NC(=O)[C@H](CC(=O)O)NC(=O)CNC(=O)[C@H](CCCNC(=N)N)NC(=O)[C@H](C)NC(=O)[C@@H]2CCCN2C(=O)CN(C)C(=O)[C@H](CC(C)C)NC(=O)[C@H](C)NC1=O
# notes: Comparative compound (*)
# B6: Compound 2, cyclic peptide A R G D A A A L p P (peptide)
# peptide: cyclo(ARGDAAAL[dP]P)
# SMILES: CC(C)C[C@@H]1NC(=O)[C@H](C)NC(=O)[C@H](C)NC(=O)[C@H](C)NC(=O)[C@H](CC(=O)O)NC(=O)CNC(=O)[C@H](CCCNC(=N)N)NC(=O)[C@H](C)NC(=O)[C@@H]2CCCN2C(=O)[C@H]2CCCN2C1=O
# notes: Comparative compound (*)
# B7: Compound 3, cyclic peptide A R G D L A A A p P (peptide)
# peptide: cyclo(ARGDLAAA[dP]P)
# SMILES: CC(C)C[C@@H]1NC(=O)[C@H](CC(=O)O)NC(=O)CNC(=O)[C@H](CCCNC(=N)N)NC(=O)[C@H](C)NC(=O)[C@@H]2CCCN2C(=O)[C@H]2CCCN2C(=O)[C@H](C)NC(=O)[C@H](C)NC(=O)[C@H](C)NC1=O
# notes: Comparative compound (*)
# B8: Compound 13, cyclic peptide A R G D L A L p Sar (peptide)
# peptide: cyclo(ARGDLAL[dP][Sar])
# SMILES: CC(C)C[C@@H]1NC(=O)[C@H](CC(=O)O)NC(=O)CNC(=O)[C@H](CCCNC(=N)N)NC(=O)[C@H](C)NC(=O)CN(C)C(=O)[C@H]2CCCN2C(=O)[C@H](CC(C)C)NC(=O)[C@H](C)NC1=O
# B9: Compound 19, cyclic peptide F R G D L A Y p (NMe)K (peptide)
# peptide: FRGDLAYXX
# modifications: head-to-tail cyclic; D-Pro (p) at position 8; N-methyl-Lys at position 9
# B10: Compound 17, cyclic peptide A R G D L A F p (NMe)K (peptide)
# peptide: cyclo(ARGDLAF[dP][NMeK])
# SMILES: CC(C)C[C@@H]1NC(=O)[C@H](CC(=O)O)NC(=O)CNC(=O)[C@H](CCCNC(=N)N)NC(=O)[C@H](C)NC(=O)[C@H](CCCCN)N(C)C(=O)[C@H]2CCCN2C(=O)[C@H](Cc2ccccc2)NC(=O)[C@H](C)NC1=O
# B11: Compound 15, cyclic peptide A R G D L A L p (NMe)K (peptide)
# peptide: cyclo(ARGDLAL[dP][NMeK])
# SMILES: CC(C)C[C@@H]1NC(=O)[C@H](CC(=O)O)NC(=O)CNC(=O)[C@H](CCCNC(=N)N)NC(=O)[C@H](C)NC(=O)[C@H](CCCCN)N(C)C(=O)[C@H]2CCCN2C(=O)[C@H](CC(C)C)NC(=O)[C@H](C)NC1=O
# B12: Compound 22, cyclic peptide W R G D L A F p (NMe)K (peptide)
# peptide: cyclo(WRGDLAF[dP][NMeK])
# SMILES: CC(C)C[C@@H]1NC(=O)[C@H](CC(=O)O)NC(=O)CNC(=O)[C@H](CCCNC(=N)N)NC(=O)[C@H](Cc2c[nH]c3ccccc23)NC(=O)[C@H](CCCCN)N(C)C(=O)[C@H]2CCCN2C(=O)[C@H](Cc2ccccc2)NC(=O)[C@H](C)NC1=O
# B13: Compound 20, cyclic peptide F R G D L A W p (NMe)K (peptide)
# peptide: cyclo(FRGDLAW[dP][NMeK])
# SMILES: CC(C)C[C@@H]1NC(=O)[C@H](CC(=O)O)NC(=O)CNC(=O)[C@H](CCCNC(=N)N)NC(=O)[C@H](Cc2ccccc2)NC(=O)[C@H](CCCCN)N(C)C(=O)[C@H]2CCCN2C(=O)[C@H](Cc2c[nH]c3ccccc23)NC(=O)[C@H](C)NC1=O
# B14: Compound 21, cyclic peptide Y R G D L A F p (NMe)K (peptide)
# peptide: YRGDLAFXX
# modifications: head-to-tail cyclic; D-Pro (p) at position 8; N-methyl-Lys at position 9
# B15: Compound 16, cyclic peptide A R G D L A L (NMe)k P (peptide)
# peptide: cyclo(ARGDLAL[dNMeK]P)
# notes: Comparative compound (*)
# B16: Compound 6, cyclic peptide A R G D L p P (peptide)
# peptide: cyclo(ARGDL[dP]P)
# SMILES: CC(C)C[C@@H]1NC(=O)[C@H](CC(=O)O)NC(=O)CNC(=O)[C@H](CCCNC(=N)N)NC(=O)[C@H](C)NC(=O)[C@@H]2CCCN2C(=O)[C@H]2CCCN2C1=O
# notes: Comparative compound (*)
# B17: Compound 5, cyclic peptide A R G D L L p P (peptide)
# peptide: cyclo(ARGDLL[dP]P)
# SMILES: CC(C)C[C@@H]1NC(=O)[C@H](CC(=O)O)NC(=O)CNC(=O)[C@H](CCCNC(=N)N)NC(=O)[C@H](C)NC(=O)[C@@H]2CCCN2C(=O)[C@H]2CCCN2C(=O)[C@H](CC(C)C)NC1=O
# notes: Comparative compound (*)
# Legend:
# [1] = target: T1, αvβ3 (Homo sapiens, UniProt P05106+P06756); experiment: Solid-phase integrin binding assay, αvβ3 (coated Vitronectin)
# T1 construct: using coated extracellular matrix proteins and soluble integrins
# T1 sequence (P06756 31-992 limits assumed): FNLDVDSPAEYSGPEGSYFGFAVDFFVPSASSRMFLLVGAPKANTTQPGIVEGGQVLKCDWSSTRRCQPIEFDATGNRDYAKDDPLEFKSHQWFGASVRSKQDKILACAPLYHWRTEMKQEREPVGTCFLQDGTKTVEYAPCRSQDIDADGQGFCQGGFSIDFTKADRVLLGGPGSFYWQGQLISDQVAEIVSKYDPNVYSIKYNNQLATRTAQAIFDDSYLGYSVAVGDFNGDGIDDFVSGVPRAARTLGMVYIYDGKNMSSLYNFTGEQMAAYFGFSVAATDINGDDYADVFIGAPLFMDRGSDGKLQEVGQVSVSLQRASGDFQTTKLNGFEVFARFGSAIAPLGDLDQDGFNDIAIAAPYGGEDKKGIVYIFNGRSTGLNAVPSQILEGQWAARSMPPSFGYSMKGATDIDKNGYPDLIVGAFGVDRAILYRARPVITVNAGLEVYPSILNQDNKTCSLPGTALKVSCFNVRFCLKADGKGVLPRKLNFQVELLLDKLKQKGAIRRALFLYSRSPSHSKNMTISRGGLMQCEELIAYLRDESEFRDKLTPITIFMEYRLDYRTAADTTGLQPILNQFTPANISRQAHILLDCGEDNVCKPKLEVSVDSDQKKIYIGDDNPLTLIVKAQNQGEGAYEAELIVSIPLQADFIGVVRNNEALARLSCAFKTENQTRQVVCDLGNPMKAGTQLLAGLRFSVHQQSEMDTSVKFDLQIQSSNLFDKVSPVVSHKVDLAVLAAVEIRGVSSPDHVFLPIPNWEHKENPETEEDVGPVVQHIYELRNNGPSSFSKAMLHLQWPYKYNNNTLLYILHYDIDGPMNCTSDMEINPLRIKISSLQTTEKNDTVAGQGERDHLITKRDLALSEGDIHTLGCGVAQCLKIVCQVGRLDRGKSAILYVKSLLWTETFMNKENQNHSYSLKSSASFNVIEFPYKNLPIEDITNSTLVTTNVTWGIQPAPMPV
# T1 sequence (P05106 27-718 limits assumed): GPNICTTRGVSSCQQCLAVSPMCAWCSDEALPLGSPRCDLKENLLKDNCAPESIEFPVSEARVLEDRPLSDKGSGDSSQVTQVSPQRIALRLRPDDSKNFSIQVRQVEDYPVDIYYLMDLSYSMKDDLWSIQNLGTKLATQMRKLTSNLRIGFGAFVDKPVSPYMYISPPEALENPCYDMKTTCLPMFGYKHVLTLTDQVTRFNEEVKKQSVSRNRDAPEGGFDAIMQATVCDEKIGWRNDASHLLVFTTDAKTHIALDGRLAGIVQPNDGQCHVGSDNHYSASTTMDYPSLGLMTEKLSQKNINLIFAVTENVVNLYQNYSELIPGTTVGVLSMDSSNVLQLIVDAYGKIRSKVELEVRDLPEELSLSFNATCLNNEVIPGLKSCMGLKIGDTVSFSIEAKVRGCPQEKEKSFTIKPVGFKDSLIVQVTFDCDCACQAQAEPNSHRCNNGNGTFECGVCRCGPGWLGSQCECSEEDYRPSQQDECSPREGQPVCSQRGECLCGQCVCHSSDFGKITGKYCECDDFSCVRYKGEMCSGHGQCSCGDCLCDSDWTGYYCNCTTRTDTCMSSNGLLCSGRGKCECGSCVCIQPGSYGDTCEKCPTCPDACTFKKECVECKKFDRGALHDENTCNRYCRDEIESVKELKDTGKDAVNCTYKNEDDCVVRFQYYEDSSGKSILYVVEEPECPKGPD
# Protocol: (§1) The activity and selectivity of integrin ligands were determined by a solid-phase binding assay according to the previously reported protocols using coated extracellular matrix proteins and soluble integrins: Fibronectin (Fn) for α5β1, latent activating protein (LAP) for αvβ6 and αvβ8, Vitronectin (Vn) for αvβ3 and αvβ5, Fibrinogen (Fbg) for aIIbβ3.
# [2] = target: αvβ6 (Homo sapiens, UniProt P06756+P18564); experiment: Solid-phase integrin binding assay, αvβ6 (coated LAP, soluble integrin); design: using coated extracellular matrix proteins and soluble integrins
# Protocol: as §1
# [3] = target: T2, αIIbβ3 (Homo sapiens, UniProt P05106+P08514); experiment: Solid-phase integrin binding assay, αIIbβ3 (coated Fibrinogen)
# T2 construct: using coated extracellular matrix proteins and soluble integrins
# T2 sequence (P08514 32-1039): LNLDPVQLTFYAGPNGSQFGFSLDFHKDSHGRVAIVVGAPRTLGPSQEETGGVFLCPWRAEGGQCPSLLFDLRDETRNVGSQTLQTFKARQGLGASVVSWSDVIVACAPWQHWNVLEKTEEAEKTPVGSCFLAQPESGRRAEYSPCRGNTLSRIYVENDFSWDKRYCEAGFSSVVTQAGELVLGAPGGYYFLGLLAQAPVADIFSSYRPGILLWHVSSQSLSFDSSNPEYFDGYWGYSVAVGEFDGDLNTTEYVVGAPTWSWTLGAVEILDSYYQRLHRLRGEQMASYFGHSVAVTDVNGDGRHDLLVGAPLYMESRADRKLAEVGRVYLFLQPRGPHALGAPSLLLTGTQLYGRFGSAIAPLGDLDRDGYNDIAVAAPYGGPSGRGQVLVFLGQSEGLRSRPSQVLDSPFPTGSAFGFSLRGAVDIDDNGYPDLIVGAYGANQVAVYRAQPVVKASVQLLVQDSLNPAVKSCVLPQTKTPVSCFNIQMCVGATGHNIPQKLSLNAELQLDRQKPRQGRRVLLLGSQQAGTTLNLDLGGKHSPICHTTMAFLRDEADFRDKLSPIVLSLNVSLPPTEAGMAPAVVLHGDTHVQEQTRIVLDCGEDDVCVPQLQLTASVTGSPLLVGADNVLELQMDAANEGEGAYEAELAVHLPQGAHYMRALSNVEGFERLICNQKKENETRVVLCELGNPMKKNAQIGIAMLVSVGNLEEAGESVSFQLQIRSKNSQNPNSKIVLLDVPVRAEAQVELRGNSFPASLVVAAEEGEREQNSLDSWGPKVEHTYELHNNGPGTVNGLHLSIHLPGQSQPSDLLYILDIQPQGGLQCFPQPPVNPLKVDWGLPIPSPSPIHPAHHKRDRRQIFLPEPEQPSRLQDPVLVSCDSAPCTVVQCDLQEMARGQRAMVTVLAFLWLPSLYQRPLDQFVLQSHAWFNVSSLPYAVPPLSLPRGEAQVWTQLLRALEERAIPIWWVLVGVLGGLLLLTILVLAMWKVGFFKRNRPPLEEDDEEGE
# T2 sequence (P05106 27-788): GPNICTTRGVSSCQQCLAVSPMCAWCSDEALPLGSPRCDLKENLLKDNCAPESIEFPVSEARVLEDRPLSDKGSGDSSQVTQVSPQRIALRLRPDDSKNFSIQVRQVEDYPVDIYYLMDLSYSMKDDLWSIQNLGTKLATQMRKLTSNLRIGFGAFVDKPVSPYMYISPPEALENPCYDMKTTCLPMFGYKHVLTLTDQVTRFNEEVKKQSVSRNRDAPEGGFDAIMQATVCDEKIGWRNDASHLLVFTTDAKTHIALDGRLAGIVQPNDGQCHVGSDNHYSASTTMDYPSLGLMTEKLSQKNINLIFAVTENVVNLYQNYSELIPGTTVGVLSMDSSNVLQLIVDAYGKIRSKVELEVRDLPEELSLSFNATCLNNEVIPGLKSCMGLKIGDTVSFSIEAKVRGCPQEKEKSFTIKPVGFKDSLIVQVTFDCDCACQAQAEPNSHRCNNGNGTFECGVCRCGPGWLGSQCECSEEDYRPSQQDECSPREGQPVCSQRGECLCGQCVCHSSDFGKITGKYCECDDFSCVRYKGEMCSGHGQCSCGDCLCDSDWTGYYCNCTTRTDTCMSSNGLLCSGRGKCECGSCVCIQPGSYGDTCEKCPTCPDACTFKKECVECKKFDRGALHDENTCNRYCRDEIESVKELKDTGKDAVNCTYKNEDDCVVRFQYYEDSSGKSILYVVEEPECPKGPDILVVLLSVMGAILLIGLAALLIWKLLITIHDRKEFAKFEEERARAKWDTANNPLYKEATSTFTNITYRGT
# Protocol: as §1
# [4] = target: T3, αvβ5 (Homo sapiens, UniProt P06756+P18084); experiment: Solid-phase integrin binding assay, αvβ5 (coated Vitronectin)
# T3 construct: using coated extracellular matrix proteins and soluble integrins
# Protocol: as §1
# [5] = target: T4, integrin αvβ8 (soluble integrin) (UniProt P06756 31-992; P26012 43-684); experiment: solid-phase binding assay, competition; coated LAP, soluble αvβ8
# T4 construct: Only 'soluble integrins' is said
# T4 sequence (P06756 31-992, chain 1 of 2): as the sequence (P06756 31-992 limits assumed) above
# T4 sequence (P26012 43-684, chain 2 of 2): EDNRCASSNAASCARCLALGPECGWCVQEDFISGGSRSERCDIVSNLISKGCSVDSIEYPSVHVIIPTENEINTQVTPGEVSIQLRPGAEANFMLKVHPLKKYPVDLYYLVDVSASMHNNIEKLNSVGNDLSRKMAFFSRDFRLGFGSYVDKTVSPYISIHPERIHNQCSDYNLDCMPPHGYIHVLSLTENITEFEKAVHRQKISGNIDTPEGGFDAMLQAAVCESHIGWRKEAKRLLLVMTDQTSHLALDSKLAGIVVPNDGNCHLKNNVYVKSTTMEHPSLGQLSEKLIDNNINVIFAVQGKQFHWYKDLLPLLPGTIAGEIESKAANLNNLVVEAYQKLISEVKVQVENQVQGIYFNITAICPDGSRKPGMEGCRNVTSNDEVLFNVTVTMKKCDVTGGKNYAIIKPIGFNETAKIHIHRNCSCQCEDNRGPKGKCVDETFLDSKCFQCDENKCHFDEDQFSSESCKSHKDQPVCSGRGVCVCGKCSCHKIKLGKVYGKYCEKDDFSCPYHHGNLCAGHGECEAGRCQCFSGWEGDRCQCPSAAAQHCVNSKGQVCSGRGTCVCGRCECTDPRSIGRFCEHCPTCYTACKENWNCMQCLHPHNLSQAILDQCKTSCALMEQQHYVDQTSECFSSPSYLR
# [6] = target: T5, integrin α5β1 (soluble integrin) (UniProt P08648 42-995; P05556 21-728); experiment: solid-phase binding assay, competition; coated fibronectin, soluble α5β1
# T5 construct: Only 'soluble integrins' is said
# [7] = target: T6, integrin αvβ3 (soluble integrin) (UniProt P06756 31-992; P05106 27-718); experiment: solid-phase binding assay, competition; coated vitronectin, soluble αvβ3
# T6 construct: Only 'soluble integrins' is said
# T6 sequence (P06756 31-992, chain 1 of 2): as the sequence (P06756 31-992 limits assumed) above
# T6 sequence (P05106 27-718, chain 2 of 2): as the sequence (P05106 27-718 limits assumed) above
# [8] = target: T6, integrin αvβ3 (soluble integrin); experiment: as above; remark: listed apart in the source
# [9] = target: T7, integrin αvβ6 (soluble integrin) (UniProt P06756 31-992; P18564 22-707); experiment: solid-phase binding assay, competition; coated LAP, soluble αvβ6
# T7 construct: Only 'soluble integrins' is said
# T7 sequence (P06756 31-992, chain 1 of 2): as the sequence (P06756 31-992 limits assumed) above
# T7 sequence (P18564 22-707, chain 2 of 2): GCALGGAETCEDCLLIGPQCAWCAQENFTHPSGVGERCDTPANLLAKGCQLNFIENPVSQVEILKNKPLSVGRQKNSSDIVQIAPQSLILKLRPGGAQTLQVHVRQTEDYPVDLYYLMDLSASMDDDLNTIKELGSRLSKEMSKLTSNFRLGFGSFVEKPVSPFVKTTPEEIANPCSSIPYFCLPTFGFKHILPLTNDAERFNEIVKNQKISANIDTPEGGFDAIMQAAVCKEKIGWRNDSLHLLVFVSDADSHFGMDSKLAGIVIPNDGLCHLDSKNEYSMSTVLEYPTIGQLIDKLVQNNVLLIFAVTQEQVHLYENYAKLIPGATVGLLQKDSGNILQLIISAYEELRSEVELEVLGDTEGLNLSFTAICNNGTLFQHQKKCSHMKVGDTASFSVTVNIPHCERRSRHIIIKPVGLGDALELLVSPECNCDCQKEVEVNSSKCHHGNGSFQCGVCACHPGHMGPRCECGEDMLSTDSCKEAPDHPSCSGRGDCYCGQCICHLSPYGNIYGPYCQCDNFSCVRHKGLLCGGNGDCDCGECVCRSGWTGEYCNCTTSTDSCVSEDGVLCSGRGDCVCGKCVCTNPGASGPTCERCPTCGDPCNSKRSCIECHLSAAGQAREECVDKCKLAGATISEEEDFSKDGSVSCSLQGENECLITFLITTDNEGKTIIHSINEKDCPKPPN
# [10] = solid-phase binding assay, Vitronectin coated, read-out: αvβ3, IC50
# [11] = solid-phase binding assay, Fibrinogen coated, read-out: αIIbβ3, IC50
# [12] = solid-phase binding assay, Vitronectin coated, read-out: αvβ5, IC50
molecule,measurement,setting,value
"CC(C)C[C@@H]1NC(=O)[C@H](CC(=O)O)NC(=O)CNC(=O)[C@H](CCCNC(=N)N)NC(=O)[C@H](C)NC(=O)[C@@H]2CCCN2C(=O)[C@H]2CCCN2C(=O)[C@H](CC(C)C)NC(=O)[C@@H](CC(=O)O)NC1=O [Compound 7, A R G D L d L p P] (cyclo(ARGDL[dD]L[dP]P))",IC50,[1]; [10],> 1000 nM
"CC(C)C[C@@H]1NC(=O)[C@H](CC(=O)O)NC(=O)CNC(=O)[C@H](CCCNC(=N)N)NC(=O)[C@H](C)NC(=O)[C@@H]2CCCN2C(=O)[C@H]2CCCN2C(=O)[C@H](Cc2ccccc2)NC(=O)[C@H](C)NC1=O [Compound 10, A R G D L A F p P] (cyclo(ARGDLAF[dP]P))",IC50,[1]; [10],104 nM
same,IC50,[2],0.67 nM
"CC(C)C[C@@H]1NC(=O)[C@H](CC(=O)O)NC(=O)CNC(=O)[C@H](CCCNC(=N)N)NC(=O)[C@H](C)NC(=O)[C@@H]2CCCN2C(=O)[C@H]2CCCN2C(=O)[C@H](CC(C)C)NC(=O)[C@H](C)NC1=O [Compound 4, A R G D L A L p P] (cyclo(ARGDLAL[dP]P))",IC50,[1]; [10],106 nM
same,IC50,[2],3 nM
same,IC50,[3]; [11],> 1000 nM
same,IC50,[4]; [12],> 1000 nM
"CC(C)C[C@@H]1NC(=O)[C@H](CC(=O)O)NC(=O)CNC(=O)[C@H](CCCNC(=N)N)NC(=O)[C@H](C)NC(=O)[C@@H]2CCCN2C(=O)[C@H]2CCCN2C(=O)[C@H](CCCCN)NC(=O)[C@H](C)NC1=O [Compound 11, A R G D L A K p P] (cyclo(ARGDLAK[dP]P))",IC50,[1]; [10],302 nM
same,IC50,[2],1.51 nM
same,IC50,[3]; [11],> 1000 nM
same,IC50,[4]; [12],> 1000 nM
"CC(=O)NCCCC[C@H]1C(=O)N[C@@H](Cc2ccccc2)C(=O)N[C@@H](CCCNC(=N)N)C(=O)NCC(=O)N[C@@H](CC(=O)O)C(=O)N[C@@H](CC(C)C)C(=O)N[C@@H](C)C(=O)N[C@@H](Cc2ccccc2)C(=O)N2CCC[C@@H]2C(=O)N1C [Compound 23, F R G D L A F p (NMe)K^[f]]",IC50,[1]; [10],640 nM
same,IC50,[2],0.3 nM
same,IC50,[3]; [11],> 1000 nM
same,IC50,[4]; [12],> 1000 nM
"CC(C)C[C@@H]1NC(=O)[C@H](CC(=O)O)NC(=O)CNC(=O)[C@H](CCCNC(=N)N)NC(=O)[C@H](C)NC(=O)[C@@H]2CCCN2C(=O)[C@H]2CCCN2C(=O)[C@H](CC(C)C)NC(=O)[C@H](C)NC(=O)[C@H](C)NC1=O [Compound 1, A R G D L A A L p P] (cyclo(RGDLAAL[dP]PA))",IC50,[1],76.7 nM
same,IC50,[2],8.3 nM
same,IC50,[3],> 1000 nM
same,IC50,[4],> 1000 nM
"CC(C)C[C@@H]1NC(=O)[C@H](CC(=O)O)NC(=O)CNC(=O)[C@H](CCCNC(=N)N)NC(=O)[C@H](Cc2ccccc2)NC(=O)[C@@H]2CCCN2C(=O)[C@H]2CCCN2C(=O)[C@H](CC(C)C)NC(=O)[C@H](C)NC1=O [Compound 12, F R G D L A L p P] (cyclo(FRGDLAL[dP]P))",IC50,[1]; [10],> 1000 nM
same,IC50,[2],1.25 nM
same,IC50,[3]; [11],> 1000 nM
same,IC50,[4]; [12],> 1000 nM
B1,IC50,[5],42.9 nM
same,IC50,[6],266 nM
same,IC50,[7],106 nM
same,IC50,[8],106 nM
B2,IC50,[8],65.2 nM
same,IC50,[9],63.4 nM
B3,IC50,[5],127 nM
same,IC50,[6],254 nM
B4,IC50,[9],148 nM
B5,IC50,[8],85.1 nM
same,IC50,[9],24.2 nM
B6,IC50,[9],320 nM
B7,IC50,[9],15.4 nM
B8,IC50,[8],87.7 nM
same,IC50,[9],8.1 nM
B9,IC50,[8],685 nM
same,IC50,[9],0.39 nM
B10,IC50,[8],143 nM
same,IC50,[9],0.7 nM
B11,IC50,[8],415 nM
same,IC50,[9],4.3 nM
B12,IC50,[8],645 nM
B13,IC50,[8],204 nM
same,IC50,[9],0.12 nM
B14,IC50,[8],432 nM
same,IC50,[9],0.4 nM
B15,IC50,[8],50.4 nM
same,IC50,[9],11.4 nM
B16,IC50,[9],417 nM
B17,IC50,[9],292 nM
